Two substances from paper PMC11179954 (MedComm, 2024) can be followed below.

Some results are limits rather than exact numbers.

For test [1], the target named is T1, wild-type human Y1R (NPY1R-WT, hY1R) (Homo sapiens, UniProt P25929).
T1 construct: Flag; expressed in transfected cells; host or cells: HEK293
T1 sequence (P25929 1-384): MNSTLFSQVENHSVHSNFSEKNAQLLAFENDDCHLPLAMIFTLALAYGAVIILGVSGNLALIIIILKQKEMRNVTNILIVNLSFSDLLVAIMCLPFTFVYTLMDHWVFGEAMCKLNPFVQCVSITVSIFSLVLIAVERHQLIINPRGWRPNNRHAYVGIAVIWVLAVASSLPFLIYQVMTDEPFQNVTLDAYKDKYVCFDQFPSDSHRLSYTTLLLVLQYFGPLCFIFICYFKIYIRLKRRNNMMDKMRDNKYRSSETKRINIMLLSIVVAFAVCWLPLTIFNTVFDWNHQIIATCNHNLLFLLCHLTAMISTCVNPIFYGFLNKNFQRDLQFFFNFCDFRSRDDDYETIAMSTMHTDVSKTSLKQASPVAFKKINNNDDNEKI
Kind of test: GloSensor cAMP inhibition assay in HEK293 cells. The test is classed as cell-based. Particulars: wildtype Y1R, Figure 1B.
Protocol: Following a subsequent 1 -hour incubation, ligands, diluted in assay buffer with forskolin, were introduced to the cells. Subsequently, the cells wer e incubated for 30 minutes in a light-free environment at room temperature Fluorescence signals were measured using a Synergy H1 microplate reader (BioTek). GraphPad Prism 8 (GraphPad Software) was used to processing data using the nonlinear regression dos e-response function. Results were represented as the mean ± s.e.m. from three independent experiments . All experiments were repeated at least three times.

Test [2] has as its target T2, wildtype Y2R (Homo sapiens, UniProt P49146).
T2 construct: Flag; expressed in transfected cells; host or cells: HEK293
T2 sequence (P49146 1-381): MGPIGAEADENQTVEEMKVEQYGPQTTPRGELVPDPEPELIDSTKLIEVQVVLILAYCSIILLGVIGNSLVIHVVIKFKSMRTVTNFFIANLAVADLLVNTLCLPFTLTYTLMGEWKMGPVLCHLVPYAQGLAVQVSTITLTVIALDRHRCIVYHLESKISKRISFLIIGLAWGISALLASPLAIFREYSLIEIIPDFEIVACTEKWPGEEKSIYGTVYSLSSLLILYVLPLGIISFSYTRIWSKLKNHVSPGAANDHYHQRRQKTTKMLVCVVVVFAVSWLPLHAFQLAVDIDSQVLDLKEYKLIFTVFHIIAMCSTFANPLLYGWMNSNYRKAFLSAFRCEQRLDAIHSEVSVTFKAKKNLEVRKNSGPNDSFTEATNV
The test is described as follows: GloSensor cAMP inhibition assay in HEK293 cells. The test is classed as cell-based. The note with it: Figure 1C. The procedure:
EM density map11, the coordinates were subsequently manual adjustment and rebuilding in COOT 12. Real space refinement was performed in Phenix program 13.
The model statistics were finally validated by using MolProbity 14 in Phenix. The refinement statistics are presented in supplemental information table S1. UCSF Chimera11, Chimera X 15 and PyMOL (https://pymol.org/2/) were used to generate the […]
Cyclic adenosine 3′,5′-monophosphate (cAMP) assay.
To measure the ligand-induced Gi signaling activation potency of wild -type NPYR or mutants, the GloSensor cAMP assay (Promega) was conducted following a previous study. Briefly, HEK293 cells were co -transfected with the GloSensor plasmid and various NPYR constructs or pcDNA3.1 (as a negative control) plasmids using Polyethylenimine Linear (PEI, YEASEN) in 6 -well plates. Following a 4-hour incubation period, the cells were transferred to fresh medium. After 24 hours, they were harvested and suspended in assay buffer ( HBSS with 10 mM HEPES, pH 7.4), supplemented with a 3% v/v dilution of D -Luciferin-Potassium Salt (YEASEN).
Following a subsequent 1 -hour incubation, ligands, diluted in assay buffer with forskolin, were introduced to the cells. Subsequently, the cells wer e incubated for 30 minutes in a light-free environment at room temperature […] signals were measured using a Synergy H1 microplate reader (BioTek). […]

“NPY^3−36: N-terminal truncated NPY variant, processed by dipeptidyl peptidase IV”: the “reduced Y1R activation compared to NPY” value in test [1] is on record as over 50 folds. The “Y2R activation compared with NPY (in words)” value in test [2] was “slightly reduced Y2R activation”.

In the case of NPY^13−36: N-terminally truncated NPY, in test [1], the “reduced Y1R activation compared to NPY” value is over 50 folds.
